In patent publication US20230002486A1 (SPARX THERAPEUTICS, published 2023):
Read-outs that look alike come from different tables or passages of the source.

How the values were obtained:
[1] = target: T1, PD-L1 (programmed death-ligand 1), recombinant protein (human, UniProt Q9NZQ7 19-238, limits assumed); experiment: ELISA, coated human PDL1 (FIG. 30B)
T1 construct: the other ELISAs print only 'PD-L1'; also called human PDL1; CD274

[2] = target: claudin 18.2 (CLDN 18.2), recombinant protein (human); experiment: ELISA, coated CLDN18.2 (FIG. 30A)
[3] = target: T1, PD-L1 (programmed death-ligand 1), …; experiment: direct ELISA on coated human PD-L1
[4] = target: claudin 18.2 (CLDN 18.2), recombinant protein (human); experiment: direct ELISA on coated CLDN 18.2
[5] = target: mouse PDL1 (mouse, UniProt Q9EP73 19-238, limits assumed); experiment: ELISA, coated mouse PDL1 (FIG. 30B)
[6] = target: claudin 18.2 (CLDN 18.2), recombinant protein (human); experiment: competitive phage ELISA, phage-displayed Fab, coated and soluble CLDN 18.2; parameters: unit not given here
Experimental: (§1) After 15 min incubation and washing, anti-M13 antibody/HRP conjugate was added and incubated for 30 min, then developed with TMB for 5-10 min and quenched with 1 M phosphoric acid. Binding signal was analyzed by the plate reader.
(§2) To identify clones with improved solubility, CDR light chain residue 55 (LC55E or L2) was mutated back to Glu on clones 9O47, 5C9oap-oae, 9O24-oae, 9O36-oae, 9O45-oae, and 9O47-oae.

[7] = target: claudin 18.2 (CLDN 18.2), recombinant protein (human); experiment: competitive phage ELISA: phage-displayed Fab pre-incubated with a dilution series of soluble CLDN 18.2 (axis: GFP-CLDN 18.2, nM), then added to plate-coated CLDN 18.2
Experimental: as §1

[8] = target: claudin 18.2 (CLDN 18.2), recombinant protein (human); experiment: as above; remark: listed apart in the source
Experimental: as §1, §2

[9] = target: T1, PD-L1 (programmed death-ligand 1), …; experiment: direct ELISA, coated PD-L1 (FIG. 28B)
[10] = target: claudin 18.2 (CLDN 18.2), recombinant protein (human); experiment: direct ELISA, coated CLDN 18.2 (FIG. 28A)

Sequence of claudin 18.2 (CLDN 18.2), recombinant protein (human) (chain, as listed by the source limits assumed): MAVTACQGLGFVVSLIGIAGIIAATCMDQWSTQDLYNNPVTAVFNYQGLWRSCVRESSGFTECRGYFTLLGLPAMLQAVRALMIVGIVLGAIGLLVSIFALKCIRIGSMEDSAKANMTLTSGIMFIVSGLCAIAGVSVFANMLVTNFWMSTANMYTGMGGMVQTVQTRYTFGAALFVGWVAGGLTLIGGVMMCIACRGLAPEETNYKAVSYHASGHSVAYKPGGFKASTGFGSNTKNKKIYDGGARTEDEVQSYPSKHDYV
T1 sequence (Q9NZQ7 19-238 limits assumed): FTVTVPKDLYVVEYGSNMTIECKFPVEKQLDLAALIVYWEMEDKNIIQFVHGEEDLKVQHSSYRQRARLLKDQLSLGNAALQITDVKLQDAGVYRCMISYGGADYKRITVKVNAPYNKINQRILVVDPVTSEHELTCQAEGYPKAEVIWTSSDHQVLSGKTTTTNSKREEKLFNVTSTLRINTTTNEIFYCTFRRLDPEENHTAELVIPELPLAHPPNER
Sequence of mouse PDL1 (Q9EP73 19-238 limits assumed): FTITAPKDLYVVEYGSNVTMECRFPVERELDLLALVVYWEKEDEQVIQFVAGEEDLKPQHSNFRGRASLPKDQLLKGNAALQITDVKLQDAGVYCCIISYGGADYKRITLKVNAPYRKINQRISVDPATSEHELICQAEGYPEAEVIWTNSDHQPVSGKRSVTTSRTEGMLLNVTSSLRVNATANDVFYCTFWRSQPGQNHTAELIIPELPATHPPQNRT

B1: OB12A4, two-chain anti-CLDN 18.2/anti-PD-L1 (12A4) bispecific antibody (bispecific antibody)
chain 1: not shown
chain 2: EIVLTQSPATLSLSPGERATLSCRASQSVSSYLAWYQQKPGQAPRLLIYDASNRATGIPARFSGSGSGTDFTLTISSLEPEDFAVYYCQQRSNWPTFGQGTKVEIKSGGGGEVQLVESGGGLVQPGGSLRLSCAVSGYTFSMNWVRQAPGKGLEWVAWINMYTGEPTYADDFKGRFTISRDDSKNTLYLQMNSLRAEDTAVYYCARLYNGNSLDYWGQGTLVTVSSGGGGSEPKSSDKTHTCPPCPAPELLGGPSVFLFPPKPKDTLMISRTPEVTCVVVDVSHEDPEVKFNWYVDGVEVHNAKTKPREEQYNSTYRVVSVLTVLHQDWLNGKEYKCKVSNKALPAPIEKTISKAKGQPREPQVCTLPPSREEMTKNQVSLSCAVKGFYPSDIAVEWESNGQPENNYKTTPPVLDSDGSFFLVSKLTVDKSRWQQGNVFSCSVMHEALHNRFTQKSLSLSPGK
B1 was tested. Which Kd [1] did it give?
The Kd was 0.412 nM.

And the Kd [2]?
The Kd was 0.212 nM.

What about the “EC50 (read off the curve)” value [3] of the same binder?
The value was about 0.4 nM.

And the “EC50 (read off the curve)” value [4]?
Its value is about 0.2 nM.

And the Kd [5]?
Its Kd is about 11.1 µM.

B2: 9O36-oae with LC55E, phage-displayed Fab (Fab, V domains shown)
VH: EVQLVESGGGLVQPGGSLRLSCAVSGYTFSMNWVRQAPGKGLEWVAWINMYTGEPTYADDFKGRFTISRDDSKNTLYLQMNSLRAEDTAVYYCARLYRGNSLDYWGQGTLVTVSS
VL: DIQMTQSPSSLSASVGDRVTITCKSSQSLLNWGNQKSYLTWYQQKPGKAPKLLIYWASTLESGVPSRFSGSGSGTDYTLTISSLQPEDFATYYCQNAYFFPFTFGQGTKVEIK
notes: built from 9O36-oae with light chain residue 55 (Kabat; the sixth residue of VL CDR2 WASTLMS) mutated back to Glu; also called 9O36 oaeL2
Which binding affinity [6] does the source give for B2 here?
The binding affinity was 0.059.

B3: 9O45, phage-displayed Fab (Fab, V domains shown)
VH: EVQLVESGGGLVQPGGSLRLSCAVSGYTFSMNWVRQAPGKGLEWVAWINMYTGETTYADDFKGRFTISRDDSKNTLYLQMNSLRAEDTAVYYCARLYNGNSLDYWGQGTLVTVSS
VL: DIQMTQSPSSLSASVGDRVTITCKSSQSLLNWGNQKSYLTWYQQKPGKAPKLLIYWASTLYSGVPSRFSGSGSGTDYTLTISSLQPEDFATYYCQNAYSFPFTFGQGTKVEIK
What does the source list for B3?
binding affinity [6]: 0.104; IC50 (read off the curve) [7]: ~0.1 nM

B4: 9O41, phage-displayed Fab (Fab, V domains shown)
VH: EVQLVESGGGLVQPGGSLRLSCAVSGYTFSMNWVRQAPGKGLEWVAWINMYTGERTYADDFKGRFTISRDDSKNTLYLQMNSLRAEDTAVYYCARLYNGNSLDYWGQGTLVTVSS
VL: DIQMTQSPSSLSASVGDRVTITCKSSQSLLNSGNIKSYLTWYQQKPGKAPKLLIYWASTLRSGVPSRFSGSGSGTDYTLTISSLQPEDFATYYCQNAYSFPFTFGQGTKVEIK
With B4 as the binder, how does the binding affinity [6] read?
Its binding affinity is 0.167.

B5: 9O47, phage-displayed Fab (Fab, V domains shown)
VH: EVQLVESGGGLVQPGGSLRLSCAVSGYTFSMNWVRQAPGKGLEWVAWINMYTGEPIYADDFKGRFTISRDDSKNTLYLQMNSLRAEDTAVYYCARLYNGNSLDYWGQGTLVTVSS
VL: DIQMTQSPSSLSASVGDRVTITCKSSQSLLNWGNQKSYLTWYQQKPGKAPKLLIYWASTLFSGVPSRFSGSGSGTDYTLTISSLQPEDFATYYCQNAYSFPFTFGQGTKVEIK
How did the binding affinity [6] turn out when B5 was run?
Its binding affinity is 0.095.

And the “IC50 (read off the curve)” value [7]?
The value was about 0.1 nM.

What about the Kd [7] of the same binder?
The Kd was 0.095 nM.

B6: 9O24, phage-displayed Fab (Fab, V domains shown)
VH: EVQLVESGGGLVQPGGSLRLSCAVSGYTFSMNWVRQAPGKGLEWVAWINMYTGEKTYADDFKGRFTISRDDSKNTLYLQMNSLRAEDTAVYYCARLYNGNSLDYWGQGTLVTVSS
VL: DIQMTQSPSSLSASVGDRVTITCKSSQSLLNSGNWKSYLTWYQQKPGKAPKLLIYWASTLVSGVPSRFSGSGSGTDYTLTISSLQPEDFATYYCQNAYSFPFTFGQGTKVEIK
With B6 as the binder, how does the binding affinity [6] read?
Its binding affinity is 0.144.

And the “IC50 (read off the curve)” value [7]?
Its value is about 0.2 nM.

B7: 9O24-oae with LC55E, phage-displayed Fab (Fab, V domains shown)
VH: EVQLVESGGGLVQPGGSLRLSCAVSGYTFSMNWVRQAPGKGLEWVAWINMYTGEKTYADDFKGRFTISRDDSKNTLYLQMNSLRAEDTAVYYCARLYRGNSLDYWGQGTLVTVSS
VL: DIQMTQSPSSLSASVGDRVTITCKSSQSLLNSGNWKSYLTWYQQKPGKAPKLLIYWASTLESGVPSRFSGSGSGTDYTLTISSLQPEDFATYYCQNAYFFPFTFGQGTKVEIK
notes: built from 9O24-oae with light chain residue 55 (Kabat; the sixth residue of VL CDR2 WASTLVS) mutated back to Glu; also called 9O24 oaeL2
Which binding affinity [6] does the source give for B7 here?
The binding affinity was 0.0604.

B8: 9O47-oaeE (9O47-oae with LC55E), phage-displayed Fab (Fab, V domains shown)
VH: EVQLVESGGGLVQPGGSLRLSCAVSGYTFSMNWVRQAPGKGLEWVAWINMYTGEPIYADDFKGRFTISRDDSKNTLYLQMNSLRAEDTAVYYCARLYRGNSLDYWGQGTLVTVSS
VL: DIQMTQSPSSLSASVGDRVTITCKSSQSLLNWGNQKSYLTWYQQKPGKAPKLLIYWASTLESGVPSRFSGSGSGTDYTLTISSLQPEDFATYYCQNAYFFPFTFGQGTKVEIK
notes: also called 9O47 oaeL2; 9O47 with 5C9oae and L2 mutations
What does the source list for B8?
IC50 (read off the curve) [8]: ~0.06 nM; binding affinity [6]: 0.0533

B9: 9O47E (9O47 with LC55E), phage-displayed Fab (Fab, V domains shown)
VH: EVQLVESGGGLVQPGGSLRLSCAVSGYTFSMNWVRQAPGKGLEWVAWINMYTGEPIYADDFKGRFTISRDDSKNTLYLQMNSLRAEDTAVYYCARLYNGNSLDYWGQGTLVTVSS
VL: DIQMTQSPSSLSASVGDRVTITCKSSQSLLNWGNQKSYLTWYQQKPGKAPKLLIYWASTLESGVPSRFSGSGSGTDYTLTISSLQPEDFATYYCQNAYSFPFTFGQGTKVEIK
notes: also called 9O47 LC55E (L2)
How did the binding affinity [6] turn out when B9 was run?
The binding affinity was 0.141.

B10: 9O36, phage-displayed Fab (Fab, V domains shown)
VH: EVQLVESGGGLVQPGGSLRLSCAVSGYTFSMNWVRQAPGKGLEWVAWINMYTGEPTYADDFKGRFTISRDDSKNTLYLQMNSLRAEDTAVYYCARLYNGNSLDYWGQGTLVTVSS
VL: DIQMTQSPSSLSASVGDRVTITCKSSQSLLNWGNQKSYLTWYQQKPGKAPKLLIYWASTLMSGVPSRFSGSGSGTDYTLTISSLQPEDFATYYCQNAYSFPFTFGQGTKVEIK
How did the binding affinity [6] turn out when B10 was run?
Its binding affinity is 0.108.

B11: 5C9ob, phage-displayed Fab (Fab, V domains shown)
VH: EVQLVESGGGLVQPGGSLRLSCAVSGYTFSMNWVRQAPGKGLEWVAWINMYTGEPTYADDFKGRFTISRDDSKNTLYLQMNSLRAEDTAVYYCARLYNGNSLDYWGQGTLVTVSS
VL: DIQMTQSPSSLSASVGDRVTITCKSSQSLLNSGNQKSYLTWYQQKPGKAPKLLIYWASTLESGVPSRFSGSGSGTDYTLTISSLQPEDFATYYCQNAYFFPFTFGQGTKVEIK
notes: also called 5C9o with 5C9ob mutations
For B11, which binding affinity [6] is on record?
Its binding affinity is 0.221.

B12: 5C9oap-oaeE (5C9oap-oae with LC55E), phage-displayed Fab (Fab, V domains shown)
VH: EVQLVESGGGLVQPGGSLRLSCAVSGYTFSMNWVRQAPGKGLEWVAWINMYTGERTYADDFKGRFTISRDDSKNTLYLQMNSLRAEDTAVYYCARLYRGNSLDYWGQGTLVTVSS
VL: DIQMTQSPSSLSASVGDRVTITCKSSQSLLNWGNQKSYLTWYQQKPGKAPKLLIYWASTLESGVPSRFSGSGSGTDYTLTISSLQPEDFATYYCQNAYFFPFTFGQGTKVEIK
notes: also called 5C9oap oaeL2; 5C9oap with 5C9oae and L2 mutations
What does the source list for B12?
IC50 (read off the curve) [8]: ~0.06 nM; binding affinity [6]: 0.0593

B13: 9O45-oae with LC55E, phage-displayed Fab (Fab, V domains shown)
VH: EVQLVESGGGLVQPGGSLRLSCAVSGYTFSMNWVRQAPGKGLEWVAWINMYTGETTYADDFKGRFTISRDDSKNTLYLQMNSLRAEDTAVYYCARLYRGNSLDYWGQGTLVTVSS
VL: DIQMTQSPSSLSASVGDRVTITCKSSQSLLNWGNQKSYLTWYQQKPGKAPKLLIYWASTLESGVPSRFSGSGSGTDYTLTISSLQPEDFATYYCQNAYFFPFTFGQGTKVEIK
notes: built from 9O45-oae with light chain residue 55 (Kabat; the sixth residue of VL CDR2 WASTLYS) mutated back to Glu; also called 9O45 oaeL2
With B13 as the binder, how does the binding affinity [6] read?
The binding affinity was 0.0562.

B14: Db11-21, heterodimeric (knob/hole) anti-CLDN 18.2/anti-PD-L1 bispecific antibody (bispecific antibody)
chain 1: not shown
chain 2: EIVLTQSPGTLSLSPGERATLSCRASQRVSSSYLAWYQQKPGQAPRLLIYDASSRATGIPDRFSGSGSGTDFTLTISRLEPEDFAVYYCQQYGSLPWTFGQGTKVEIKRSGGGGEVQLVESGGGLVQPGGSLRLSCAVSGYTFSMNWVRQAPGKGLEWVAWINMYTGEPTYADDFKGRFTISRDDSKNTLYLQMNSLRAEDTAVYYCARLYNGNSLDYWGQGTLVTVSSGGGGSEPKSSDKTHTCPPCPAPELLGGPSVFLFPPKPKDTLMISRTPEVTCVVVDVSHEDPEVKFNWYVDGVEVHNAKTKPREEQYNSTYRVVSVLTVLHQDWLNGKEYKCKVSNKALPAPIEKTISKAKGQPREPQVCTLPPSREEMTKNQVSLSCAVKGFYPSDIAVEWESNGQPENNYKTTPPVLDSDGSFFLVSKLTVDKSRWQQGNVFSCSVMHEALHNRFTQKSLSLSPGK
notes: Db11: 5C9ob VL-L1-durvalumab VH-L2-knob Fc; Db21: durvalumab VL-L3-5C9ob VH-L4-hole Fc; also called Db11/Db21
With B14 as the binder, how does the Kd [9] read?
The Kd was 0.378 nM.

And the Kd [10]?
The Kd was 0.104 nM.
